From patent publication US20220153847A1 (Chugai, published 2022)

Assays:
[1] = target: HLA-DQ2.5/33mer gliadin peptide on IHW9088 cells (human); test: cell-based or functional assay
[2] = target: T1, HLA-DQ2.5/secalin 2 peptide complex on Ba/F3 cells (human); test: FACS, Ba/F3 cells; IC17=0%, DQN0139bb//IC17=100%;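 also: flow cytometry binding of anti-HLA-DQ antibodies at 5 µg/mL, incubated 30 min at room temperature with Ba/F3 lines presenting HLA-DQ/peptide complexes; antibody tested at 5 microgram/mL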
T1 construct: whole, on cells; also called Ba/F3-HLA-DQ2.5/secalin 2

[3] = target: T2, HLA-DQ2.5/alpha 2 gliadin peptide complex on Ba/F3 cells (human); test: FACS, Ba/F3 cells; IC17=0%, DQN0139bb//IC17=100%;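 also: flow cytometry binding of anti-HLA-DQ antibodies at 5 µg/mL, incubated 30 min at room temperature with Ba/F3 lines presenting HLA-DQ/peptide complexes; antibody tested at 5 microgram/mL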
T2 construct: whole, on cells; also called Ba/F3-HLA-DQ2.5/alpha 2 gliadin; HLA-DQ2.5/a2 gliadin

[4] = target: T3, HLA-DQ2.5/gamma 4b gliadin peptide complex on Ba/F3 cells (human); test: FACS, Ba/F3 cells; IC17=0%, DQN0139bb//IC17=100%;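 also: flow cytometry binding of anti-HLA-DQ antibodies at 5 µg/mL, incubated 30 min at room temperature with Ba/F3 lines presenting HLA-DQ/peptide complexes; antibody tested at 5 microgram/mL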
T3 construct: whole, on cells; also called Ba/F3-HLA-DQ2.5/gamma 4b gliadin; HLA-DQ2.5/g4b gliadin

[5] = target: T4, HLA-DQ2.5/gamma 1 gliadin peptide complex on Ba/F3 cells (human); test: FACS, Ba/F3 cells; IC17=0%, DQN0139bb//IC17=100%;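 also: flow cytometry binding of anti-HLA-DQ antibodies at 5 µg/mL, incubated 30 min at room temperature with Ba/F3 lines presenting HLA-DQ/peptide complexes; antibody tested at 5 microgram/mL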
T4 construct: whole, on cells; also called Ba/F3-HLA-DQ2.5/gamma 1 gliadin; HLA-DQ2.5/g1 gliadin

[6] = target: T5, HLA-DQ2.5/alpha 1 gliadin peptide complex on Ba/F3 cells (human); test: FACS, Ba/F3 cells; IC17=0%, DQN0139bb//IC17=100%
T5 construct: whole, on cells; also called Ba/F3-HLA-DQ2.5/alpha 1 gliadin; HLA-DQ2.5/a1 gliadin

[7] = target: T6, HLA-DQ2.5/omega 1 gliadin peptide complex on Ba/F3 cells (human); test: FACS, Ba/F3 cells; IC17=0%, DQN0139bb//IC17=100%
T6 construct: whole, on cells; also called Ba/F3-HLA-DQ2.5/omega 1 gliadin; HLA-DQ2.5/w1 gliadin

[8] = target: T7, HLA-DQ2.2 on Ba/F3 cells (human, UniProt P01909 24-216, limits assumed); test: FACS, Ba/F3 cells; IC17=0%, DQN0139bb//IC17=100%
T7 construct: whole, on cells; also called Ba/F3-HLA-DQ2.2
T7 MHC II alpha: not shown
T7 MHC II beta: not shown

[9] = target: T8, HLA-DQ2.5/hordein 1 peptide complex on Ba/F3 cells (human); test: FACS, Ba/F3 cells; IC17=0%, DQN0139bb//IC17=100%
T8 construct: whole, on cells; also called Ba/F3-HLA-DQ2.5/hordein 1

[10] = target: T9, HLA-DQ2.5/secalin 1 peptide complex on Ba/F3 cells (human); test: FACS, Ba/F3 cells; IC17=0%, DQN0139bb//IC17=100%
T9 construct: whole, on cells; also called Ba/F3-HLA-DQ2.5/secalin 1

[11] = target: T10, HLA-DQ2.5/26mer gliadin peptide complex on Ba/F3 cells (human); test: FACS, Ba/F3 cells; IC17=0%, DQN0139bb//IC17=100%
T10 construct: whole, on cells; also called Ba/F3-HLA-DQ2.5/26mer gliadin

[12] = target: T11, HLA-DQ2.5/14mer 1 peptide complex on Ba/F3 cells (human); test: FACS, Ba/F3 cells; IC17=0%, DQN0139bb//IC17=100%
T11 construct: whole, on cells; also called Ba/F3-HLA-DQ2.5/14mer 1

[13] = target: T12, HLA-DQ2.5/avenin 2 peptide complex on Ba/F3 cells (human); test: FACS, Ba/F3 cells; IC17=0%, DQN0139bb//IC17=100%
T12 construct: whole, on cells; also called Ba/F3-HLA-DQ2.5/avenin 2

[14] = target: T13, HLA-DQ2.5/BC hordein peptide complex on Ba/F3 cells (human); test: FACS, Ba/F3 cells; IC17=0%, DQN0139bb//IC17=100%
T13 construct: whole, on cells; also called Ba/F3-HLA-DQ2.5/BC hordein

[15] = target: T14, HLA-DQ2.5/omega 2 gliadin peptide complex on Ba/F3 cells (human); test: FACS, Ba/F3 cells; IC17=0%, DQN0139bb//IC17=100%
T14 construct: whole, on cells; also called Ba/F3-HLA-DQ2.5/omega 2 gliadin; HLA-DQ2.5/w2 gliadin

[16] = target: T15, HLA-DQ2.5/hordein 2 peptide complex on Ba/F3 cells (human); test: FACS, Ba/F3 cells; IC17=0%, DQN0139bb//IC17=100%
T15 construct: whole, on cells; also called Ba/F3-HLA-DQ2.5/hordein 2

[17] = target: T16, HLA-DQ2.5/alpha 3 gliadin peptide complex on Ba/F3 cells (human); test: FACS, Ba/F3 cells; IC17=0%, DQN0139bb//IC17=100%
T16 construct: whole, on cells; also called Ba/F3-HLA-DQ2.5/alpha 3 gliadin; HLA-DQ2.5/a3 gliadin

[18] = target: T17, HLA-DQ2.5/avenin 3 peptide complex on Ba/F3 cells (human); test: FACS, Ba/F3 cells; IC17=0%, DQN0139bb//IC17=100%
T17 construct: whole, on cells; also called Ba/F3-HLA-DQ2.5/avenin 3

[19] = target: T18, HLA-DQ2.5/gamma 2 gliadin peptide complex on Ba/F3 cells (human); test: FACS, Ba/F3 cells; IC17=0%, DQN0139bb//IC17=100%
T18 construct: whole, on cells; also called Ba/F3-HLA-DQ2.5/gamma 2 gliadin; HLA-DQ2.5/g2 gliadin

[20] = target: T19, HLA-DQ2.5/avenin 1 peptide complex on Ba/F3 cells (human); test: FACS, Ba/F3 cells; IC17=0%, DQN0139bb//IC17=100%
T19 construct: whole, on cells; also called Ba/F3-HLA-DQ2.5/avenin 1

[21] = target: T20, HLA-DQ2.5/alpha 1b gliadin peptide complex on Ba/F3 cells (human); test: FACS, Ba/F3 cells; IC17=0%, DQN0139bb//IC17=100%
T20 construct: whole, on cells; also called Ba/F3-HLA-DQ2.5/alpha 1b gliadin; HLA-DQ2.5/a1b gliadin

[22] = target: DQ2.5/alpha 2 gliadin peptide on IHW9023 cells (human); test: cell-based or functional assay
[23] = target: DQ2.5/BC hordein peptide on IHW9023 cells (human); test: cell-based or functional assay
[24] = target: DQ2.5/omega 1 gliadin peptide on IHW9023 cells (human); test: cell-based or functional assay
[25] = target: DQ2.5/omega 2 gliadin peptide on IHW9023 cells (human); test: cell-based or functional assay
[26] = target: DQ2.5/gamma 1 gliadin peptide on IHW9023 cells (human); test: cell-based or functional assay
[27] = target: DQ2.5/alpha 1b gliadin peptide on IHW9023 cells (human); test: cell-based or functional assay
[28] = target: DQ2.5/alpha 1 gliadin peptide on IHW9023 cells (human); test: cell-based or functional assay
[29] = target: T21, HLA-DQ2.5 on HLA-DQ2.5-positive PBMC B cells (human, UniProt P01909 24-254; P01920 33-261); test: FACS, PBMC B cells; IC17=0%, DQN0139bb//IC17=100%
T21 construct: whole, on cells; also called HLA-DQ2.5+ PBMC B cell
T21 MHC II alpha: not shown
T21 MHC II beta: not shown

B1: DQN0139bb//IC17 (bispecific antibody, human IgG1, kappa)
heavy 1: QSLEESGGRLVTPGTALTLTCTVSGFSLSSYAMGWVRQAPGKGLEYIGWTSPGDSAYYASWTKGRFTISRTSTTVELKITSPTTEDTATYFCARDAAYIGHWAFNLWGPGTLVTVSSASTKGPSVFPLAPSSKSTSGGTAALGCLVKDYFPEPVTVSWNSGALTSGVHTFPAVLQSSGLYSLSSVVTVPSSSLGTQTYICNVNHKPSNTKVDKRVEPKSCDKTHTCPPCPAPELRRGPSVFLFPPKPKDTLMISRTPEVTCVVVDVSHEDPEVKFNWYVDGVEVHNAKTKPREEQYNSTYRVVSVLTVLHQDWLNGKEYKCKVSNKALPAPIEKTISKAKGQPREPQVYTLPPSREEMTKNQVSLTCLVKGFYPSDIAVEWESNGQPENNYKTTPPYLDSDGSFFLYSKLTVDKSRWQQGNVFSCSVMHEALHNHYTQESLSLSP
light 1: DVVMTQTPASVSAPVGGTVTINCQASESIYSNLAWYQQKPGQPPKLLIYGASTLESGVPSRVKGSGYGTQFTLTISDLECADAATYYCQQYYGSSSTAFTFGGGTKVEIKRTVAAPSVFIFPPSDEQLKSGTASVVCLLNNFYPREAKVQWKVDNALQSGNSQESVTEQDSKDCTYSLSSTLTLSKADYEKHKVYACEVTHQGLSSPVTKSFNRGEC
heavy 2: QVQLQQSGPQLVRPGASVKISCKASGYSFTSYWMHWVNQRPGQGLEWIGMIDPSYSETRLNQKFKDKATLTVDKSSSTAYMQLSSPTSEDSAVYYCALYGNYFDYWGQGTTLTVSSASTKGPSVFPLAPSSKSTSGGTAALGCLVKDYFPEPVTVSWNSGALTSGVHTFPAVLQSSGLYSLSSVVTVPSSSLGTQTYICNVNHKPSNTKVDKRVEPKSCDKTHTCPPCPAPELRRGPSVFLFPPKPKDTLMISRTPEVTCVVVDVSHEDPEVKFNWYVDGVEVHNAKTKPREEQYNSTYRVVSVLTVLHQDWLNGKEYKCKVSNKALPAPIEKTISKAKGQPREPQVYTLPPSRKEMTKNQVSLTCLVKGFYPSDIAVEWESNGQPENNYKTTPPYLDSDGSFFLYSKLTVDKSRWQQGNVFSCSVMHEALHNHYTQKSLSLSP
light 2: DIQMTQSSSSFSVSLGDRVTITCKASEDIYNRLAWYQQKPGNAPRLLISGATSLETGVPSRFSGSGSGKDYTLSITSLQTEDVATYYCQQYWSTPYTFGGGTKLEVKRTVAAPSVFIFPPSDEQLKSGTASVVCLLNNFYPREAKVQWKVDNALQSGNSQESVTEQDSKDSTYSLSSTLTLSKADYEKHKVYACEVTHQGLSSPVTKSFNRGEC
With B1 the “IC50 (read off the curve)” value [1] was about 0.4 microgram/mL.

B2: DQN0344xx//DQN0429cc (bispecific antibody, human IgG1, kappa)
heavy 1: QSLEESGGGLVKPGGTLTLTCTASGFSFSSSYWMCWVRQAPGKGLEWVACVYGGSDTTYYASWTKGRFTISKGSSTTVALQVTSLTAADTATYFCARDPLNYYYYGELNLWGPGTLVTVSSASTKGPSVFPLAPSSKSTSGGTAALGCLVKDYFPEPVTVSWNSGALTSGVHTFPAVLQSSGLYSLSSVVTVPSSSLGTQTYICNVNHKPSNTKVDKRVEPKSCDKTHTCPPCPAPELRRGPSVFLFPPKPKDTLMISRTPEVTCVVVDVSHEDPEVKFNWYVDGVEVHNAKTKPREEQYNSTYRVVSVLTVLHQDWLNGKEYKCKVSNKALPAPIEKTISKAKGQPREPQVYTLPPSREEMTKNQVSLTCLVKGFYPSDIAVEWESNGQPENNYKTTPPYLDSDGSFFLYSKLTVDKSRWQQGNVFSCSVMHEALHNHYTQESLSLSP
light 1: AVVLTQTASPVSAAVGGTVTIRCQATENIYSGLAWYQQKPGQPPKVLIYYVSTLASGVPSRFKGSGSGTEYTLTISGVQCDDAATYYCQTYHDISNVTFGGGTKVEIKRTVAAPSVFIFPPSDEQLKSGTASVVCLLNNFYPREAKVQWKVDNALQSGNSQESVTEQDSKDCTYSLSSTLTLSKADYEKHKVYACEVTHQGLSSPVTKSFNRGEC
heavy 2: QEQLVESGGGLVQPEGSLTLTCTASGFSFSSSYYMCWVRQAPGKGLEWIGCIYTGSGSTDYATWVNGRFTISKTSSTTVTLQMTSLTVADTATYFCARDIGIDYNFWGPGTLVTVSSASTKGPSVFPLAPSSKSTSGGTAALGCLVKDYFPEPVTVSWNSGALTSGVHTFPAVLQSSGLYSLSSVVTVPSSSLGTQTYICNVNHKPSNTKVDKRVEPKSCDKTHTCPPCPAPELRRGPSVFLFPPKPKDTLMISRTPEVTCVVVDVSHEDPEVKFNWYVDGVEVHNAKTKPREEQYNSTYRVVSVLTVLHQDWLNGKEYKCKVSNKALPAPIEKTISKAKGQPREPQVYTLPPSRKEMTKNQVSLTCLVKGFYPSDIAVEWESNGQPENNYKTTPPYLDSDGSFFLYSKLTVDKSRWQQGNVFSCSVMHEALHNHYTQKSLSLSP
light 2: AFELTQTPSFVEARVGGTVTIKCQATQSISSYLNWYQQKPGQPPKLLIYYASTLASGVPSRFKGSGSGTEFTLTISGVECADAATYYCHYGISYVSFGGGTKVEIKRTVAAPSVFIFPPSDEQLKSGTASVVCLLNNFYPREAKVQWKVDNALQSGNSQESVTEQDSKDCTYSLSSTLTLSKADYEKHKVYACEVTHQGLSSPVTKSFNRGEC
With B2 the “% MFI” value [2] was 43.3%, the “% MFI” value [3] was 58.7% and the “% MFI” value [4] was 6.2%. The “% MFI” value [5] was 16.9%, the “% MFI” value [6] was 63.1% and the “% MFI” value [7] was 43%. For the same binder, the “% MFI” value [8] was 0.8%, the “% MFI” value [9] was 20.3% and the “% MFI” value [10] was 37.8%. For the same binder, the “% MFI” value [11] was 30.7%, the “% MFI” value [12] was 19.4% and the “% MFI” value [13] was 18.3%. The “% MFI” value [14] was 18.5%, the “% MFI” value [15] was 19.3% and the “% MFI” value [16] was 90%. The “% MFI” value [17] was 18%, the “% MFI” value [18] was 19.6% and the “% MFI” value [19] was 1.3%. For the same binder, the “% MFI” value [20] was 14.2%, the “% MFI” value [21] was 64.6% and the “IC50, Jurkat NFAT-Luc T cell activation” value [22] was 0.00196 µg/mL. The “IC50, Jurkat NFAT-Luc T cell activation” value [23] was 0.415 µg/mL, the “IC50, Jurkat NFAT-Luc T cell activation” value [24] was 0.0397 µg/mL and the “IC50, Jurkat NFAT-Luc T cell activation” value [25] was 0.0146 µg/mL. The “IC50, Jurkat NFAT-Luc T cell activation” value [26] was 0.0947 µg/mL, the “IC50, Jurkat NFAT-Luc T cell activation” value [27] was 0.171 µg/mL and the “IC50, Jurkat NFAT-Luc T cell activation” value [28] was 0.0498 µg/mL. The “% MFI” value [29] was 0.4%.
